Test results published in patent US20200308290A1.

Columns and labels:
[1] = target: FcγRIIB on transfected CHO cells (UniProt P31994); assay: flow cytometry on FcγRIIB-transfected CHO cells, detection with anti-human kappa antibody, GFI against nM
[2] = target: FcγRIIIA on transfected CHO cells (UniProt P08637); assay: flow cytometry on FcγRIIIA-transfected CHO cells, detection with anti-human kappa antibody, GFI against nM
Sequence of FcγRIIIA on transfected CHO cells (P08637 17-254 limits assumed): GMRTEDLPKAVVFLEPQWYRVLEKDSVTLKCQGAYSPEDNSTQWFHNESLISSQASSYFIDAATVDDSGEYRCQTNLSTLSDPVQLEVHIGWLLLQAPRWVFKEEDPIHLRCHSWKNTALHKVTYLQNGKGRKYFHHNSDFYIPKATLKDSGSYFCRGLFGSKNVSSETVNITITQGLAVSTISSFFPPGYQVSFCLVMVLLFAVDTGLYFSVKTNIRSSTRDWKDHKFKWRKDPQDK

Sequence of FcγRIIB on transfected CHO cells (P31994 43-310 limits assumed): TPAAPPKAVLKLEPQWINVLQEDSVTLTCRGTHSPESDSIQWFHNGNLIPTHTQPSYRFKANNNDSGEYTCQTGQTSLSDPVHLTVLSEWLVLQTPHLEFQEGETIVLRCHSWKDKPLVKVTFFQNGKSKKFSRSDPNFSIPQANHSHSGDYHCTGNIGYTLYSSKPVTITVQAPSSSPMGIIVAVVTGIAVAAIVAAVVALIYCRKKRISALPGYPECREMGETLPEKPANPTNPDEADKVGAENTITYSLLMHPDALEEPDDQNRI

EC50 (read off the curve) [1] [nM]	EC50 (read off the curve) [2] [nM]	Substance
0.3		SELF (antibody)
2		L328F (antibody)
0.7	1	S267E (antibody)
	4	N297A (antibody)
